In paper PMC8532158:

Key:
Test in all cases: yeast surface display affinity sorting with deep sequencing (deep mutational scanning); BPTI single and double mutant library on yeast, sorted by FACS into four affinity gates (HI, WT, SL, LO) for each protease; NGS enrichments converted into ΔΔG_bind by a normalization formula fitted on ΔΔG_bind values of purified proteins
[1] = molecular target: BPTI K15A displayed on the yeast surface (bovine)
[2] = molecular target: BPTI A16S displayed on the yeast surface (bovine)
[3] = molecular target: BPTI K15R displayed on the yeast surface (bovine)

ΔΔG bind against BPTI WT [1]: 11.1 kcal/mol | ΔΔG bind against BPTI WT [2]: 4.5 kcal/mol | ΔΔG bind against BPTI WT [3]: -1.4 kcal/mol
Substance: bovine trypsin (enzyme)
